Experimental data published in patent publication US20180344829A1 (INNATE PHARMA, published 2018).

T1: human Siglec-10 expressed on CHO cells (human, UniProt Q96LC7 17-697)
T1 construct: NCBI NP_149121 is printed; also called huSiglec-10; Siglec-10 CHO transfectants
T1 sequence: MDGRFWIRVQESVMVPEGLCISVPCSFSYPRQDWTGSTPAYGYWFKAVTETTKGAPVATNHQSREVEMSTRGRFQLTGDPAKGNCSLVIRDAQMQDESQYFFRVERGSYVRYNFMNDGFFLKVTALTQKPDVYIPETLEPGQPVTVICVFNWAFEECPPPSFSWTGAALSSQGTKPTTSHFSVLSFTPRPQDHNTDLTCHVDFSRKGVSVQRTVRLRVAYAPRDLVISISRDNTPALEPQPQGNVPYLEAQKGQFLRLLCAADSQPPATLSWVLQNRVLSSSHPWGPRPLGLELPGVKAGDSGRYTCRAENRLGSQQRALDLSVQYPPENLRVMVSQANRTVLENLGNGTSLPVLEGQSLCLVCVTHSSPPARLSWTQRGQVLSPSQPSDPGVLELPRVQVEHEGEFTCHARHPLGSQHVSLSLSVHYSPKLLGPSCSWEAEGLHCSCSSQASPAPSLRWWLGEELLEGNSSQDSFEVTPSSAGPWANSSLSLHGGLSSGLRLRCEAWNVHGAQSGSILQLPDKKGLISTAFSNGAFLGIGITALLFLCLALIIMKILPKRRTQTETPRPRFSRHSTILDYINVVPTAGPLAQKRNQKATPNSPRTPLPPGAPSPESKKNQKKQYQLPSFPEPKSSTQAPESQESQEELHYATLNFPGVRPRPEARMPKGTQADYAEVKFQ


Assays:
[1] = molecular target: T2, human Siglec-7 expressed on CHO cells (human, UniProt Q9Y286 19-467); experiment: flow cytometry on CHO transfectants
T2 construct: NCBI NP_055200.1 is printed; also called Siglec-7 CHO transfectants
Method: (§1) Cells expressing Siglec-3, -5, -6, -7, -8, -9, -11 and -12 were generated using the amino acid sequences and Genbank references for Siglec polypeptides shown below in Table 2. Anti-Siglec-10 antibodies are tested by flow cytometry for binding to the cells. Binding of antibodies on human Siglec-10 was tested by flow cytometry on CHO cells transfected with human Siglec-10, human Siglec-7 or human Siglec-11. Cells were incubated 1h in Staining Buffer (SB) with primary antibodies at 8 ug/ml, then were washed three times with SB. Secondary Goat F(ab′)2 Anti-Human IgG (Fc) PE (Beckman Coulter) was incubated for 30 min at 4° C., cells were washed twice with SB. […] The 6 antibodies bound human Siglec-10 CHO transfectants with high differential in binding affinity over the control Siglec-7 or Siglec-11 CHO transfectants (no or only low residual binding to Siglec-7 or Siglec-11). […] The EC₅₀ as determined by flow cytometry for binding for S10-A antibody to Siglec-10 expressing CHO cells was 0.1 μg/ml.

[2] = molecular target: T1, human Siglec-10 expressed on CHO cells; experiment: flow cytometry on CHO transfectants, antibodies at 8 ug/ml
Method: as §1

[3] = molecular target: T1, human Siglec-10 expressed on CHO cells; experiment: flow cytometry on Siglec-10 expressing CHO cells

T2 sequence (Q9Y286 19-467): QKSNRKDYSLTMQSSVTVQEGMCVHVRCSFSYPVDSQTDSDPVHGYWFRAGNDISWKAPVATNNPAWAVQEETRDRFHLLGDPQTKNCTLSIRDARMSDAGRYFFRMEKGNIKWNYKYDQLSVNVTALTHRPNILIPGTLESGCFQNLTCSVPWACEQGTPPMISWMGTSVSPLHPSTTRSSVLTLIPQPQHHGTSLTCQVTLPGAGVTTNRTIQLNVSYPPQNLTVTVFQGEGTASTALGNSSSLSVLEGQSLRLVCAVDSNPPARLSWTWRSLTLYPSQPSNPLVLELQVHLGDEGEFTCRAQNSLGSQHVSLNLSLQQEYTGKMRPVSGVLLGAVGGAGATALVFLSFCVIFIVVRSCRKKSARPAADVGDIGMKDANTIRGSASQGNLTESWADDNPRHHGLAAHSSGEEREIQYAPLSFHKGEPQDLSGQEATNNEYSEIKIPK

Row | Binder | binding result [1] | binding result [2] | EC50 [3] [µg/mL]
1 | antibody S10-B (antibody, human IgG1, V domains shown, also called CHS2-S10-B) VH: QVQLKESGPGLVAPSQSLSITCTVSGFSLTDYDVNWVRQPPGKGLEWLGMIWGDGITDYNSALKSRLSISKDNSKSQVFLEMNSLQTDDTARYYCARGGIYYFGNTYGYWFFDVWGAGTTVTVSS VL: DIVMTQSPSSLAVSTGEKVTMSCKSSQSLLNSRTRKNYLAWYQQKPGQSPKLLIYWASTRESGVPDRFTGSGSGTDFTLTISSVQAEDLAVYYCKQSYNLRTFGGGTKLEIKR | no binding (tested: 8 ug/ml) | binds | 
2 | antibody S10-C (antibody, human IgG1, V domains shown, also called CHS2-S10-C) VH: QVQLKESGPGLVAPSQSLSITCTVSGFSLTDYDVNWVRQPPGKGLEWLGMIWGDGITDYNSALKSRLSISKDNSKSQVFLEMNSLQTDDTARYYCARGGIYYFGNTYGYWFFDVWGAGTTVTVSS VL: EILLTQSPSSLAVSTGEKVTMSCKSSQSLLNSRTRKNYLAWYQQKPGQSPKLLIYWASTRESGVPDRFTGSGSGTDFTLTISSVQAEDLAVYYCKQSYNLRTFGGGTKLEIKR | no binding (tested: 8 ug/ml) | binds | 
3 | antibody S10-A (antibody, human IgG1, V domains shown, also called CHS2-S10-A) VH: QIQLQQSGAELEKPGASVKMSCKASGYTFTSYWMHWVKQRPGQGLEWIGYINPDTDSTEYNQKFRDKATLTADKSSSTAYMQLSSLTSEDSAVYYCARPYYRYAGYAMDYWGQGTSVTVSS VL: DIKMTQSPSSMYASLGERVTITCKASQDINSYLSWFQQKPGKSPKTLIYRANRLVDGVPSRFSGSGSGQVYSLTISSLEYEDLGIYYCLQYDEFPWTFGGGTKLEIKR | no binding (tested: 8 ug/ml) |  | 0.1
